Measured values: the supplement of paper PMC12042874
± gives the uncertainty stated by the source.

Assay: amyloid nucleation score (Sup35N fusion, yeast selection) (log enrichment); library NNK2; higher = more nucleation; inactive = no reads after selection
Method in brief: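 Output and input plasmid inserts were sequenced by Illumina after psi-negative yeast carrying Sup35N fused to peptides of 20 random codons had been induced 24 hours with 100 μM copper sulfate and grown 7 days at 30°C on medium lacking adenine and uracil. The nucleation score is the DiMSum log enrichment of output over input reads, centred on the mode score of non-aggregating sequences. Sequences with under 100 input reads were excluded.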

Substance	amyloid nucleation score
TQPPNCQVYKRDDTCYWCGS	-0.509 ± 0.33
TRCGMEAYMSLDMGLYERPM	-0.762 ± 0.41
TRGPR	0.76 ± 0.46
TRHSGKLLFNILMFRVMSCR	-0.36 ± 0.74
TRLPEMGLMDLITRSCYNRD	-1.35 ± 0.75
TRNNLSVERQKVRAMSCEKC	-0.038 ± 1.1
TRTLRDGVHVGEPLAVYWCC	9.477 ± 0.028
TRTNEVSGNAESKNCRCYIG	0.404 ± 0.29
TRVDDLIR	-0.191 ± 0.32
TRVLYPACVCHGRSISFGVE	0.134 ± 0.44
TSDYYTSNVQDSALRHFFSP	-0.081 ± 0.34
TSGLILL	-0.301 ± 0.37
TSGLMMSVCKFDLWQNVND	3.81 ± 0.09
TSGWNAERMFEHINGQFVFL	-0.195 ± 0.49
TSLFVLVVGLGLCK	2.91 ± 0.19
TSLGGWVLERRCLPDAADMR	1.2 ± 0.31
TSRLNMVTSHVLKWCDNRSR	-0.516 ± 0.5
TSRPMALQGYSGNSDDVTYV	0.445 ± 0.65
TSTIYGLTPRFGNMAHSAVV	0.227 ± 0.65
TSVFFQGIALP	8.228 ± 0.029
TSVIIIGYCI	5.997 ± 0.034
TSVNSILRYFRSRAMLKQGS	1.11 ± 0.45

Substance	amyloid nucleation score
TSYIYLMISASPQFLS	4.04 ± 0.11
TSYSTPRMGPLTPRLSSG	0.388 ± 0.25
TTHCRLYMYVWWMYVVIFFD	2.11 ± 0.16
TTKPSAILWGSTSKRPRLPR	1.23 ± 0.34
TTLMWVWFIGFWP	6.139 ± 0.04
TTLVSSGYKYFCDVFTGVNA	-1.45 ± 0.63
TTPGTDSLMAEII	1.01 ± 0.49
TTRIS	inactive
TTSKISSSKSLEARHTSHLP	0.985 ± 0.27
TTTAERSVRPVSCDGFIACG	3.56 ± 0.054
TTVDSNIRAYIFKVARYHYK	-0.488 ± 1
TVAGYCVPSSSCRTGTFTVC	-0.567 ± 0.33
TVFLIDTYTYDTVFNTSRCR	3.76 ± 0.041
TVGHDQASYMGFGSFYTSVF	-0.538 ± 0.76
TVGNF	1.25 ± 0.47
TVHFLHILIIFRSWSEGMPV	-0.345 ± 0.74
TVIFVCHFTKVDCVSNTQSY	3.42 ± 0.1
TVIRNLVICSFEYCRDMITR	8.195 ± 0.075
TVLCTRRLAWRYRLHFFFQ	3.16 ± 0.073
TVLLMIMMYFIANSFYVACG	5.89 ± 0.066
TVMTFEYSEHVFRDMDT	-0.501 ± 1
TVNLVFSTRG	4.64 ± 0.059

Substance	amyloid nucleation score
TVQDMFIFIFYVYNSFGRYM	3.35 ± 0.052
TVRMIMLANLIQSYWHTIVS	-0.153 ± 0.65
TVSYKWSSMEVITKYKGWSR	0.897 ± 0.28
TVTSLRSLPIMSMPCRETTD	1.1 ± 0.25
TVVKDHEYKEWSDWSF	inactive
TVWNHVTGLDKNSRCVTQSS	0.509 ± 0.81
TWESSV	0.613 ± 0.2
TWGGFRY	1.76 ± 0.48
TWHSIWREYSGTFTHTYWTD	0.555 ± 0.62
TWMSYFVHVSVGFLVYYLYI	-0.919 ± 1
TWTHCIGSLIR	-0.855 ± 0.76
TYATNSRRNRNVYLRPHCQI	0.117 ± 0.3
TYDSYRVIYISY	-0.372 ± 0.61
TYFYSWYGKYPADSRFY	-0.488 ± 1
TYIRDRHIVYWGHTGSFIYM	1.63 ± 0.18
TYLSVGMNLLVGSPFNYNDL	inactive
TYPMMGQGFC	0.131 ± 0.55
TYPNKADPLFRS	0.008 ± 0.46
TYSFVSLTYDSVTVFALTRC	-0.326 ± 0.49
TYSTSSLYRMEIHLAFSASV	-0.22 ± 1
TYVLAIGLFWRYPF	3.22 ± 0.083
TYVVKLLIGWDLDAIFTVLS	0.499 ± 0.37

Substance	amyloid nucleation score
VACCFNSQYSEAI	3.99 ± 0.076
VAFIYCIV	4.99 ± 0.068
VAFKRLGNMSSGTFSWAMLN	0.894 ± 0.74
VAKAAHFSLVIMYLFK	0.01 ± 0.43
VASKGCRYYNRLADFLHWSK	0.027 ± 0.74
VCACLNMTCVFFILTGNGVK	7.59 ± 0.039
VCCVP	-1.09 ± 1.1
VCDFIW	-1.48 ± 0.63
VCDGV	-0.582 ± 0.44
VCLFLSNQRMWYVEFNTC	-0.549 ± 1
VCYGVSFPIGWGYQYHNRNV	inactive
VDFVIGLLKPTVVKNHGCWS	-0.301 ± 0.65
VDHSMVCWVRCMGC	0.19 ± 1.1
VDIVFSPSTNQWFLFLNCLV	4.24 ± 0.038
VDMGGDPWMVNRCELSLRLW	0.881 ± 0.43
VDRKWRKT	-0.373 ± 1
VDVFGVCRRSVYVA	0.988 ± 0.4
VDWCWGLWT	0.945 ± 0.24
VDWFLYFCSPTFCHVL	8.741 ± 0.063
VEARKLYQCMCVVRC	-0.143 ± 0.28
